Assay results from patent US20140287419A1, “Compositions Having Dicamba Decarboxylase Activity and Methods of Use” (priority 2013, published 2014).

Assay: 14C assay with IPTG-induced recombinant E. coli cells (14CO2 capture from [14C]-carboxyl-labeled dicamba)
Settings: for Dicamba Decarboxylase Activity: IPTG-induced recombinant E. coli cells, [14C]-carboxyl-labeled dicamba, 14CO2 capture; for Enzymatic Detection level: dicamba decarboxylation activity of the protein of the given SEQ ID NO

Row | Molecule | Dicamba Decarboxylase Activity | Enzymatic Detection level
1 | 96 (protein, Aspergillus nidulans) MAPLIVDVHTHVYPPAYMQMLRSRKTVPYVHDPSNNRDPRLIILSSDDDASIPLDQRGRPVDSSYWDINVKLSFMRQHGINCSVISLANPWLDFVEPAEAQMWAERINDDLEKTCATVNKAADPGNTLTLDQKETLFAFGALPLSAPSSESVVAEIKRLKTLEHLRGVIMGTSGLGKGLDDARLDPVWEALQETDMLMFLHPHYGLPEEAYGGPETTGRYGHVLPLALGFPLETTIAVTRMLLSGVFDRFPRLKILLAHSGGTLPFLAGRIESCILHERKFISGGGDVQGPQRSVWDVLKTNIYLDAVVYGKPGLEAAMTASGSDRLLFGTDHPFFPPLDSKDNSWPSVTTNYQAIHATFDTNSKTVADVLGGNAARILNLK | No | No
2 | 92 (protein, listed as Chitinophaga pinensis) MARIVTLEEHVSFPEMTALLPEEILKNRKQSGAALQMQEKLADITGERLTSMKAAGISMQVLSVENTDVYLLPDSLAPAFAAKYNDLLADKISSHSDAFAAFAMLPMTVPEAAADELERAVKTHGFCGAMIKGLINGVFLDAPKFAPVFACAEKLGVPLYIHPGIPPKEVIDAYYSNVGDTKGPNEAIACYGWGWHSETAIHILRLLAAGIFDKYPQLNIIIGHMGEMLPMMWERSNRVFQPGNNGKNQRTLIETFRKQLYITTSGIFTQPPLQIAIDTIGIDNILFSIDYPFSSNQMGIDFLTKAALPAEQLAKMAHGNADRILKF | Yes | High
3 | 94 (protein, listed as Bacillus thuringiensis) MANRGDSNMKSLVGVIMGSTSDWETMKYACDILDELNIPYEKKVVSAHRTPDYMFEYAETARERGLKVIIAGAGGAAHLPGMVAAKTNLPVIGVPVQSKALNGLDSLLSIVQMPGGVPVATVAIGKAGSTNAGLLAAQILGSFHDDIHDALELRREAIEKDVREGSELV | No | No
4 | 88 (protein, listed as Starkeya novella) MARKIALEEHFTTPELAGKYVARPTQSDALFADIERRLADFDELRLEMMDRAEIDLMVLSVTTPGVQGVRDTGEAIRLARGANDFLAREVQKRPSRYAGFAHLAMQDAEAAATELERAVRELGFRGALINGQTNGHYLDEDQYAPFWERVQELDVPVYLHPGNMADSPAMFAHRPELGGPIWAWTAETAAHALRLVFGGTFTRFPGAKVILGHMGETLPFLLWRLDSRREFDLGEKLAPDALPSAIIKRNIAVTTSGVCDPAPLVAALQALSDDNVMFSVDYPYEDPQLASKFIETAPIGEETRAKVCHGNAERLLGL | High | High
5 | 97 (protein, listed as Sphingobium sp.) MAMMIIDCHGHYTVLPKAHDEWREQQKAAFKAGQPAPPYPEISDDEIRETIEANQLRLIKERGADMTIFSPRASAMAPHVGDQSVAVPWAQACNNLIARVVDLFPETFAGVCMLPQSPEADMTSSIAELERCVNELGFIGCNLNPDPGGGHFKHPPLTDRFWYPFYEKMVELDVPAMIHVSGSCNPAMHATGAYYLAADTIAFMQLLQGNLFADFPTLRFIIPHGGGAVPYHWGRFRGLADMLKQPSLDTLLMNNVFFDTCVYHQPGINLLADVIDNKNILFGSEMVGAVRGIDPTTGHYFDDTKRYIDALDISDQERHAIFEGNTRRVFPRLDAKLKARGL | No | No
6 | 93 (protein, listed as Mucilaginibacter paludis) MAKYGKHITINKNMRIVTLEEHISFPEMADQIPKAALGSFGRSEAMQRIAPKLADITGERLKSMDANGISMQVLSVDSSGVNLLSPQQGPAFATQYNDLIANRIAGFEKRFTAFAHLPMTAPFAAADELERAVKEHHFCGAMIRGLTGDQFLDHPQFAPIFERAQKLDVPIYLHPGLPPKGVADIYYSGLPNYSGMAEALACYGWGWHSETALHVLRLLFSGIFDQYPKLKLVIGHMGEMLPMMMARSEKAFKPGNGGANVRTLTDTFRSQVYLTTSGFFTQPPLKIALDTFGIDHVMFSVDYPFSTNEMGIEFLNEIDLPDEEVARIAHGNADKLLNLKA | Low | Low
7 | 7 (protein, listed as Legionella pneumophila) MAIVDFETHFITEACIDYLTQRQEVPKLVPELNGAYTMCFTPDVSLFHTSALMEELLSLNEQRLAIMDQAGVTIQVLSLTTINGIDSCPGDENKSTALAREVNDQLYSAIQRHPERFKGFASISPYDVKEGVKELERAISQLGFVGWLTHSNFGEDNYLDDKTYWPLLEAAEGLNIPIYLHPNVPIMREFGKYGFALGGSALGFEFDTALCLMRMILGGVFDAFPKLKIMLGHLGETMPFLMERLDHLYRIPDLKAYRPSIQRIPSEVLRQNVYITTSGRFFVPALRYVLEVMGEDRVLFASDYPMESLLDATRFIQDSDLSNQTKQKIFSINAKNLNLI | No | No
8 | 90 (protein, Pyrenophora tritici-repentis) MAATIDRVLYLGNATQRRYTSATVSVPRIFGKVALEEHVGTSIWAKYNLTPPANAVVGVLNRPPTLPNTLDTIARLDDINGRLSSMNHSGIGYVIVSLSSPGIQGVHDTALAIKFSTDINDELYLKYANAYPDKFAFFATVPMQDPVAAASELERAVSLLGAKGAAINGYTDIGPPGNSTTRYLDDPINAPFWSKVAALNVPIYLHPRAPPPSQQLVYNYPNNSLSAYPGLVTGGFAYGAETAVHALRLMLSGLFDTHPNIQIILGHAAEGLPFLIHRSDTQLAAEVPGTNGPYKRPLRYYLRNNFYATLSGVRRLSTTQCTLAEMGEERVLFSVDYPFQSNEDAADWFDGVEGMSVETKRKVARGNARRLFNLTVDLDERQIDGDFM | Low | Low
9 | 89 (protein, listed as Erwinia billingiae) MATNRRDFLKNATAVMAGSTVFAGSSHFASAAAVEPAAVQPPRRIIALEEHFMLPEFVGYLHETQQNLRNGLVDKVVTPLSDFGKGRLEIMDKNGVDFAVLSLSGPGVQAEPDRVKAVRLARYANDKLATEMQKNPRRYGGFAHLAMQDPLAAANELERCVKQLHMQGGMINGETDGLYLDDRRYDVFWERVEALNVPIYIHPGNPPDYPHMFAGHPEMWGPVWSWAVETCSHALRLIFSGTFDRYPGARVILGHMGETLPIQLWRLDSRYQIANQTFAIKHPPSWYAKKNITITTSGVCNDAALRCALDSMGSENVMFSIDYPFESTEIAVNWLKTANITEQERNAVAWGNATSILRLGA | High | High
10 | 91 (protein, listed as Botryotinia fuckeliana) MASFVCNFGKAALATLLLTPSISAADYTPQETVLNSGRPTFYDASTSIPGKIALEEHVGNDLLNGLYTVPYYPNTNEPQYSDSVYIADVGEKMLDIPSRIANMDAANISISVLTFGGPGIQGVFNATYATYAAGYVNDYLYKNYKNNANYTGRFEFWCSNALQEPSKAATELERCVKELGGVGSFVGGYTNNGGINGTANDIVYLDDPSMEPFLEKVVELDVPIYLHPRMPAPSQLLSVKGYEFLGSSPWGFSSETGAHALRLMVSGTLDKYPTLKIVLGHCGEGLPFFLPRIDQRLRHFKKELFNNTLTMEEYWLRNFYVTTAGVQDAGTLVDTIKRTGEDRVMFSVDYPFEDTVEIAGWFDRLEMNTLTKTKLAYENAKALLKLTCYVDAEKRPRIFNKHHVDDIIKHTHSPCIWTLFH | Low | Low
